Here are results for three molecules from publication PMC8413462, “Eukaryotic Box C/D methylation machinery has two non-symmetric protein assembly sites” (Scientific Reports, 2021).

The labels stand for the following.
T1: Nop5_(2)–Fib2 complex from Pyrococcus furiosus (P. furiosus, UniProt Q8U4M1 1-402; Q8U4M2 1-227)
T1 construct: Nop5, Pyrococcus furiosus, full-length, UniProtKB Q8U4M1; fibrillarin, Pyrococcus furiosus, full-length, UniProtKB Q8U4M2; Formed beforehand and then mixed with Snu13 and guide RNA (1:2:1); also called Nop5_(2)–Fib2 tetramer; source: E. coli BL21(DE3), each protein purified; mixed 1:1.1, 15 min at 80 °C, complex purified by size-exclusion chromatography; not shown: His6, N-terminal, cleaved; …
T1 sequence (looked up) 1: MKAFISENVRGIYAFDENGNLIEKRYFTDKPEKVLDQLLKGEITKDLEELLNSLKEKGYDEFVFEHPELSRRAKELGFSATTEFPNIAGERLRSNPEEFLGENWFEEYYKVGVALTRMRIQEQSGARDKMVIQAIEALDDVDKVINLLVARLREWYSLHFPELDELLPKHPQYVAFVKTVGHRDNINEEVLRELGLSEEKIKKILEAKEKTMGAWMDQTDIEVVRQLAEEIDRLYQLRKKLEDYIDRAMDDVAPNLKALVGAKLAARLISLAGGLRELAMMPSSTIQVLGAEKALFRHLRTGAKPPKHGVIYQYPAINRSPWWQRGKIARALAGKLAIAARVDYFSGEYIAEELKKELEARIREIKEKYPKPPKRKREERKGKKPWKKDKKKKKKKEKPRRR
T1 sequence (looked up) 2: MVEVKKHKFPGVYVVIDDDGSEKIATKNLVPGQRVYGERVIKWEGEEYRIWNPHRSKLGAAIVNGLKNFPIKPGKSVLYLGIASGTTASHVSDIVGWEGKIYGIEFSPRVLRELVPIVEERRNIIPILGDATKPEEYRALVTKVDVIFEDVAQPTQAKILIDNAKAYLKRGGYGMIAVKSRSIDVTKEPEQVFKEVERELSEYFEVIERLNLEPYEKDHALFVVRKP

B1: Nop5 from Pyrococcus furiosus (natural protein, P. furiosus, UniProt Q8U4M1 1-402, looked up)
chain: T1 sequence (looked up) 1
notes: Nop5, Pyrococcus furiosus, full-length gene amplified from genomic DNA, UniProtKB Q8U4M1; Cloned into pET-M11 with a TEV-cleavable N-terminal His6-Tag; also called Nop5_(2) (homodimer); source: E. coli BL21(DE3), purified (heat step at 80 °C, HisTrap, TEV cleavage, reverse HisTrap); not shown: His6, N-terminal, cleaved
B2: fibrillarin from Pyrococcus furiosus (enzyme, P. furiosus, UniProt Q8U4M2 1-227, looked up)
chain: T1 sequence (looked up) 2
notes: fibrillarin, Pyrococcus furiosus, full-length gene amplified from genomic DNA, UniProtKB Q8U4M2; Cloned into pET-M11 with a TEV-cleavable N-terminal His6-Tag; source: E. coli BL21(DE3), purified (heat step at 80 °C, HisTrap, TEV cleavage, reverse HisTrap); not shown: His6, N-terminal, cleaved
B3: Snu13 from Saccharomyces cerevisiae (natural protein, S. cerevisiae, UniProt P39990 1-126, looked up)
chain: MSAPNPKAFPLADAALTQQILDVVQQAANLRQLKKGANEATKTLNRGISEFIIMAADCEPIEILLHLPLLCEDKNVPYVFVPSRVALGRACGVSRPVIAASITTNDASAIKTQIYAVKDKIETLLI
notes: Snu13, S. cerevisiae, full-length SNU13 gene, codon-optimised synthetic gene, UniProtKB P39990; Cloned into pET-M11 with a TEV-cleavable N-terminal His6-Tag; also called Sc Snu13; source: E. coli BL21 (DE3), purified (HisTrap, QTrap flow-through, TEV cleavage, reverse HisTrap); not shown: His6, N-terminal, cleaved

Series [1] concerns the molecule itself. The series is described as follows: SEC; Nop5 and fibrillarin mixed 1:1.1, 15 min at 80 °C, cooled to room temperature; Superdex S200 Increase 10/300 GL; 20 mM sodium phosphate, 500 mM NaCl, pH 6.6. In general terms: In gel filtration, larger molecules generally elute earlier.
Series [2] deals with B1. Described as above. The settings on record: both partners purified.
Series [3] concerns the target T1, Nop5_(2)–Fib2 complex from Pyrococcus …. The experiment in a line: SEC-MALS; RNP assembled with archaeal guide RNA sR26, Snu13 and Nop5_(2)–Fib2; Superdex S200 Increase 10/300 GL, miniDawn TREOS, Optilab T-rex; the guide RNA is part of the particle; monomeric and dimeric RNP peaks partially overlapped. The settings on record: both partners purified.
The target is the same in series [4]. The experiment in a line: SEC-MALS; RNP assembled with yeast guide RNA snR51, Snu13 and Nop5_(2)–Fib2; Superdex S200 Increase 10/300 GL, miniDawn TREOS, Optilab T-rex; the guide RNA is part of the particle. The settings on record: both partners purified.

Take B1: the binding result in series [1] is reported as “binds”.

Take B2: the binding result in series [2] was “binds”. For the molecule B3, the “stoichiometry N” value is 2 copies per Nop5_(2)–Fib2 tetramer in series [3] and 1 copies per Nop5_(2)–Fib2 tetramer in series [4].
